# Test results from the supplement of paper PMC9112550, “Optimization of the antimicrobial peptide Bac7 by deep mutational scanning” (BMC Biology, 2022).
# Test system: Escherichia coli TOP10
# Experiment: shrunken log2 fold change of peptide-encoding DNA abundance (4.5 h post-induction vs induction); higher = less antimicrobial activity (less host growth inhibition)
# Settings: time post-induction: 4.5 h; library: site-saturation at positions 5, 18, 19, 20
# 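Further: peptides expressed intracellularly from a pBAD plasmid library in pooled LB shake-flask culture, induced with 0.3% L-arabinose, DNA abundance read by NGS, three biological replicates, DESeq2 with apeglm shrinkage.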
row,Sequence,shrunken log2 fold change
1,RRIRLRPPRLPRPRPRPQWKPRP,0.0162
2,RRIRCRPPRLPRPRPRPDGRPRP,0.00474
3,RRIRQRPPRLPRPRPRPLLMPRP,0.181
4,RRIRQRPPRLPRPRPRPACTPRP,-0.475
5,RRIRDRPPRLPRPRPRPVSLPRP,-0.442
6,RRIRPRPPRLPRPRPRPNDEPRP,0.0306
7,RRIRQRPPRLPRPRPRPDDHPRP,-0.00211
8,RRIRFRPPRLPRPRPRPTNQPRP,-0.259
9,RRIRRRPPRLPRPRPRPTVQPRP,0.113
10,RRIRKRPPRLPRPRPRPGQKPRP,0.212
11,RRIRYRPPRLPRPRPRPWFMPRP,-0.356
12,RRIRVRPPRLPRPRPRPVQLPRP,0.258
13,RRIRLRPPRLPRPRPRPMFYPRP,-0.361
14,RRIRRRPPRLPRPRPRPPRKPRP,1.5
15,RRIRDRPPRLPRPRPRPFDNPRP,0.0553
16,RRIRNRPPRLPRPRPRPGRPPRP,0.123
17,RRIRPRPPRLPRPRPRPYLKPRP,-0.259
18,RRIRKRPPRLPRPRPRPNWNPRP,-0.191
19,RRIRIRPPRLPRPRPRPMACPRP,-0.321
20,RRIRDRPPRLPRPRPRPHESPRP,-0.0121
21,RRIRCRPPRLPRPRPRPYITPRP,-1.44
22,RRIRHRPPRLPRPRPRPNTHPRP,-0.856
23,RRIRLRPPRLPRPRPRPGVFPRP,-0.0879
24,RRIRVRPPRLPRPRPRPLWYPRP,-0.263
25,RRIRMRPPRLPRPRPRPMAIPRP,0.227

row,Sequence,shrunken log2 fold change
1,RRIRGRPPRLPRPRPRPCNRPRP,0.212
2,RRIRGRPPRLPRPRPRPKGEPRP,0.197
3,RRIRLRPPRLPRPRPRPEQFPRP,-0.141
4,RRIRMRPPRLPRPRPRPAQGPRP,3.7
5,RRIRNRPPRLPRPRPRPHNKPRP,-0.483
6,RRIRQRPPRLPRPRPRPCCHPRP,-0.197
7,RRIRFRPPRLPRPRPRPCRWPRP,0.0901
8,RRIRSRPPRLPRPRPRPPSFPRP,0.0731
9,RRIRKRPPRLPRPRPRPNQHPRP,0.0449
10,RRIRVRPPRLPRPRPRPPEMPRP,0.116
11,RRIRLRPPRLPRPRPRPVYTPRP,-0.0286
12,RRIRLRPPRLPRPRPRPNHLPRP,0.0169
13,RRIRKRPPRLPRPRPRPKPTPRP,0.7
14,RRIRQRPPRLPRPRPRPSKYPRP,-0.0779
15,RRIRVRPPRLPRPRPRPYSGPRP,-0.00858
16,RRIRVRPPRLPRPRPRPKQMPRP,0.114
17,RRIRWRPPRLPRPRPRPCCTPRP,0.0894
18,RRIRERPPRLPRPRPRPGFVPRP,0.755
19,RRIRWRPPRLPRPRPRPVNKPRP,-0.0372
20,RRIRYRPPRLPRPRPRPRDSPRP,-0.269
21,RRIRARPPRLPRPRPRPYHPPRP,-0.482
22,RRIRIRPPRLPRPRPRPAKIPRP,-0.176
23,RRIRPRPPRLPRPRPRPRCWPRP,0.689
24,RRIRSRPPRLPRPRPRPLLMPRP,0.128
25,RRIRLRPPRLPRPRPRPYPFPRP,-0.137

row,Sequence,shrunken log2 fold change
1,RRIRGRPPRLPRPRPRPRSWPRP,1.19
2,RRIRCRPPRLPRPRPRPVAVPRP,-0.043
3,RRIRSRPPRLPRPRPRPWWKPRP,-0.0475
4,RRIRKRPPRLPRPRPRPIWMPRP,-0.0467
5,RRIRMRPPRLPRPRPRPKDDPRP,2.12
6,RRIRFRPPRLPRPRPRPEGGPRP,0.586
7,RRIRSRPPRLPRPRPRPAKEPRP,0.0106
8,RRIRYRPPRLPRPRPRPQCAPRP,-0.247
9,RRIRNRPPRLPRPRPRPEALPRP,0.102
10,RRIRARPPRLPRPRPRPRPGPRP,0.814
11,RRIRIRPPRLPRPRPRPDGQPRP,-0.0297
12,RRIRQRPPRLPRPRPRPHNPPRP,-0.33
13,RRIRLRPPRLPRPRPRPRANPRP,0.126
14,RRIRSRPPRLPRPRPRPRSCPRP,0.108
15,RRIRGRPPRLPRPRPRPVAPPRP,1.18
16,RRIRSRPPRLPRPRPRPWLVPRP,0.0191
17,RRIRDRPPRLPRPRPRPTMCPRP,-0.107
18,RRIRSRPPRLPRPRPRPPYVPRP,-0.215
19,RRIRFRPPRLPRPRPRPPALPRP,0.509
20,RRIRFRPPRLPRPRPRPCCAPRP,-0.0621
21,RRIRIRPPRLPRPRPRPYKRPRP,-0.0487
22,RRIRARPPRLPRPRPRPADGPRP,0.258
23,RRIRERPPRLPRPRPRPRSIPRP,0.0163
24,RRIRDRPPRLPRPRPRPDDDPRP,-0.00186
25,RRIRGRPPRLPRPRPRPFNIPRP,-0.199
